The target in the experiment is T1, human CD40 expressed on CHO cells (human, UniProt P25942 21-277).
T1 construct: whole, on cells; also used for the reporter cells over-expressing human CD40; also called cellular CD40; CHO-CD40 cells
As to the kind of experiment: FACS, CHO cells. For orientation: Flow cytometry measures light scatter and fluorescence of single cells or particles in a stream.

T1 sequence (P25942 21-277): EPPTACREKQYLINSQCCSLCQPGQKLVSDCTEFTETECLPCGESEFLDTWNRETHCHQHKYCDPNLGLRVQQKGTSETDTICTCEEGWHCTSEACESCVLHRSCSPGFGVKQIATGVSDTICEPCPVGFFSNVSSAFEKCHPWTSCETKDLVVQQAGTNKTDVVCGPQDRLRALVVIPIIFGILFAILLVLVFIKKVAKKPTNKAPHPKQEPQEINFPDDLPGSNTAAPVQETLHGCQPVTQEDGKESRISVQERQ

B1: Ly407 (bispecific antibody, human IgG1, kappa)
heavy: EVQLVESGGGLVQPGGSLRLSCAASGFNIKDTYMHWVRQAPGKGLEWVARIDPANGNSKYADSVKGRFTISADTSKNTAYLQMNSLRAEDTAVYYCAPFGYYVSDYAMAYWGQGTLVTVSSASTKGPSVFPLAPSSKSTSGGTAALGCLVKDYFPEPVTVSWNSGALTSGVHTFPAVLQSSGLYSLSSVVTVPSSSLGTQTYICNVNHKPSNTKVDKKVEPKSCDKTHTCPPCPAPELLGPSVFLFPPKPKDTLMISRTPEVTCVVVDVSHEDPEVKFNWYVDGVEVHNAKTKPREEQYNSTYRVVSVLTVLHQDWLNGKEYKCKVSNKALPAPIEKTISKAKGQPREPQVYTLPPSREEMTKNQVSLTCLVKGFYPSDIAVEWESNGQPENNYKTTPPVLDSDGSFFLYSKLTVDKSRWQQGNVFSCSVMHEALHNHYTQKSLSLSPGK
light: DIQLTQSPSSLSASVGDRVTITCRAGESVDIFGVGFLHWYQQKPGKAPKLLIYRASNLESGVPSRFSGSGSRTDFTLTISSLQPEDFATYYCQQTNEDPYTFGQGTKVEIKRTVAAPSVFIFPPSDEQLKSGTASVVCLLNNFYPREAKVQWKVDNALQSGNSQESVTEQDSKDSTYSLSSTLTLSKADYEKHKVYACEVTHQGLSSPVTKSFNRGECGGGGSGGGGSGGGGSGGGGSDIQMTQSPSSLSASVGDRVTITCKASQNIYIYLNWYQQKPGKAPKLLIYNTNNLQTGVPSRFSGSGSGTDFTLTISSLQPEDFATYYCLQHSSRRTFGGGTKVEIKGGGGSGGGGSGGGGSGGGGSQVQLVESGGGLVQPGGSLKLSCATSGFNFNDYFMNWVRQASGKGLEWVGQIRNKNYNYATYYTESLEGRVTISRDDSKNTAYLQMNSLKTEDTAVYYCTSYYYDGFADYFDYWGQGTTVTVSS
notes: Ly312 HC (IgG1 mutated Fc) + Ly312 LC-TM740 scFv VL-VH
B1: the binding result was “binds”.

B2: Ly408 (bispecific antibody, human IgG1, kappa)
heavy: B1 heavy
light: DIQLTQSPSSLSASVGDRVTITCRAGESVDIFGVGFLHWYQQKPGKAPKLLIYRASNLESGVPSRFSGSGSRTDFTLTISSLQPEDFATYYCQQTNEDPYTFGQGTKVEIKRTVAAPSVFIFPPSDEQLKSGTASVVCLLNNFYPREAKVQWKVDNALQSGNSQESVTEQDSKDSTYSLSSTLTLSKADYEKHKVYACEVTHQGLSSPVTKSFNRGECGGGGSGGGGSGGGGSGGGGSQVQLVESGGGLVQPGGSLKLSCATSGFNFNDYFMNWVRQASGKGLEWVGQIRNKNYNYATYYTESLEGRVTISRDDSKNTAYLQMNSLKTEDTAVYYCTSYYYDGFADYFDYWGQGTTVTVSSGGGGSGGGGSGGGGSGGGGSDIQMTQSPSSLSASVGDRVTITCKASQNIYIYLNWYQQKPGKAPKLLIYNTNNLQTGVPSRFSGSGSGTDFTLTISSLQPEDFATYYCLQHSSRRTFGGGTKVEIK
notes: Ly312 HC (IgG1 mutated Fc) + Ly312 LC-TM740 scFv VH-VL
As for B2, the binding result was “binds”.

B3: Ly405 (bispecific antibody, human IgG1, kappa)
heavy: EVQLVESGGGLVQPGGSLRLSCAASGFNIKDTYMHWVRQAPGKGLEWVARIDPANGNSKYADSVKGRFTISADTSKNTAYLQMNSLRAEDTAVYYCAPFGYYVSDYAMAYWGQGTLVTVSSASTKGPSVFPLAPSSKSTSGGTAALGCLVKDYFPEPVTVSWNSGALTSGVHTFPAVLQSSGLYSLSSVVTVPSSSLGTQTYICNVNHKPSNTKVDKKVEPKSCDKTHTCPPCPAPELLGPSVFLFPPKPKDTLMISRTPEVTCVVVDVSHEDPEVKFNWYVDGVEVHNAKTKPREEQYNSTYRVVSVLTVLHQDWLNGKEYKCKVSNKALPAPIEKTISKAKGQPREPQVYTLPPSREEMTKNQVSLTCLVKGFYPSDIAVEWESNGQPENNYKTTPPVLDSDGSFFLYSKLTVDKSRWQQGNVFSCSVMHEALHNHYTQKSLSLSPGGGGGSGGGGSGGGGSGGGGSDIQMTQSPSSLSASVGDRVTITCKASQNIYIYLNWYQQKPGKAPKLLIYNTNNLQTGVPSRFSGSGSGTDFTLTISSLQPEDFATYYCLQHSSRRTFGGGTKVEIKGGGGSGGGGSGGGGSGGGGSQVQLVESGGGLVQPGGSLKLSCATSGFNFNDYFMNWVRQASGKGLEWVGQIRNKNYNYATYYTESLEGRVTISRDDSKNTAYLQMNSLKTEDTAVYYCTSYYYDGFADYFDYWGQGTTVTVSS
light: DIQLTQSPSSLSASVGDRVTITCRAGESVDIFGVGFLHWYQQKPGKAPKLLIYRASNLESGVPSRFSGSGSRTDFTLTISSLQPEDFATYYCQQTNEDPYTFGQGTKVEIKRTVAAPSVFIFPPSDEQLKSGTASVVCLLNNFYPREAKVQWKVDNALQSGNSQESVTEQDSKDSTYSLSSTLTLSKADYEKHKVYACEVTHQGLSSPVTKSFNRGEC
notes: Ly312 HC (IgG1 mutated Fc)-TM740 scFv VL-VH + Ly312 LC
On to B3, for which the binding result was “binds”.

B4: Ly406 (bispecific antibody, human IgG1, kappa)
heavy: EVQLVESGGGLVQPGGSLRLSCAASGFNIKDTYMHWVRQAPGKGLEWVARIDPANGNSKYADSVKGRFTISADTSKNTAYLQMNSLRAEDTAVYYCAPFGYYVSDYAMAYWGQGTLVTVSSASTKGPSVFPLAPSSKSTSGGTAALGCLVKDYFPEPVTVSWNSGALTSGVHTFPAVLQSSGLYSLSSVVTVPSSSLGTQTYICNVNHKPSNTKVDKKVEPKSCDKTHTCPPCPAPELLGPSVFLFPPKPKDTLMISRTPEVTCVVVDVSHEDPEVKFNWYVDGVEVHNAKTKPREEQYNSTYRVVSVLTVLHQDWLNGKEYKCKVSNKALPAPIEKTISKAKGQPREPQVYTLPPSREEMTKNQVSLTCLVKGFYPSDIAVEWESNGQPENNYKTTPPVLDSDGSFFLYSKLTVDKSRWQQGNVFSCSVMHEALHNHYTQKSLSLSPGGGGGSGGGGSGGGGSGGGGSQVQLVESGGGLVQPGGSLKLSCATSGFNFNDYFMNWVRQASGKGLEWVGQIRNKNYNYATYYTESLEGRVTISRDDSKNTAYLQMNSLKTEDTAVYYCTSYYYDGFADYFDYWGQGTTVTVSSGGGGSGGGGSGGGGSGGGGSDIQMTQSPSSLSASVGDRVTITCKASQNIYIYLNWYQQKPGKAPKLLIYNTNNLQTGVPSRFSGSGSGTDFTLTISSLQPEDFATYYCLQHSSRRTFGGGTKVEIK
light: B3 light
notes: Ly312 HC (IgG1 mutated Fc)-TM740 scFv VH-VL + Ly312 LC
As for B4, the binding result was “binds”.

B5: Ly409 (bispecific antibody, human IgG1, kappa)
heavy: EVQLVESGGGVVQPGRSLRLSCSASGFDFTTYWMSWVRQAPGKGLEWIGEIHPDSSTINYAPSLKDRFTISRDNAKNTLFLQMDSLRPEDTGVYFCASLYFGFPWFAYWGQGTPVTVSSASTKGPSVFPLAPSSKSTSGGTAALGCLVKDYFPEPVTVSWNSGALTSGVHTFPAVLQSSGLYSLSSVVTVPSSSLGTQTYICNVNHKPSNTKVDKKVEPKSCDKTHTCPPCPAPELLGPSVFLFPPKPKDTLMISRTPEVTCVVVDVSHEDPEVKFNWYVDGVEVHNAKTKPREEQYNSTYRVVSVLTVLHQDWLNGKEYKCKVSNKALPAPIEKTISKAKGQPREPQVYTLPPSREEMTKNQVSLTCLVKGFYPSDIAVEWESNGQPENNYKTTPPVLDSDGSFFLYSKLTVDKSRWQQGNVFSCSVMHEALHNHYTQKSLSLSPGGGGGSGGGGSGGGGSGGGGSDIQMTQSPSSLSASVGDRVTITCLASEDISNDLAWYQQKPGKAPKLLIYFVDRLLDGVPSRFSGSGSGTDFTLTISSLQPEDFATYYCQQSYKYPPTFGQGTKLEIKGGGGSGGGGSGGGGSGGGGSEVQLVESGGGLVQPGGSLRLSCAASGFTFTNYGLHWVRQAPGKGLEWVSSISPSGGVTYYRDSVKGRFTISRDNSKNTLYLQMNSLRAEDTAVYYCAKPFLGWGGANWIAHWGQGTLVTVSS
light: DIQLTQSPSSLSASVGDRVTITCKASQDVGTSVAWYQQKPGKAPKLLIYWTSTRHTGVPSRFSGSGSGTDFTFTISSLQPEDIATYYCQQYSLYRSFGQGTKVEIKRTVAAPSVFIFPPSDEQLKSGTASVVCLLNNFYPREAKVQWKVDNALQSGNSQESVTEQDSKDSTYSLSSTLTLSKADYEKHKVYACEVTHQGLSSPVTKSFNRGEC
notes: Ly311 HC (IgG1 mutated Fc)-TM559 scFv VL-VH + Ly311 LC
As for B5, the binding result is reported as “binds”.

B6: Ly410 (bispecific antibody, human IgG1, kappa)
heavy: EVQLVESGGGVVQPGRSLRLSCSASGFDFTTYWMSWVRQAPGKGLEWIGEIHPDSSTINYAPSLKDRFTISRDNAKNTLFLQMDSLRPEDTGVYFCASLYFGFPWFAYWGQGTPVTVSSASTKGPSVFPLAPSSKSTSGGTAALGCLVKDYFPEPVTVSWNSGALTSGVHTFPAVLQSSGLYSLSSVVTVPSSSLGTQTYICNVNHKPSNTKVDKKVEPKSCDKTHTCPPCPAPELLGPSVFLFPPKPKDTLMISRTPEVTCVVVDVSHEDPEVKFNWYVDGVEVHNAKTKPREEQYNSTYRVVSVLTVLHQDWLNGKEYKCKVSNKALPAPIEKTISKAKGQPREPQVYTLPPSREEMTKNQVSLTCLVKGFYPSDIAVEWESNGQPENNYKTTPPVLDSDGSFFLYSKLTVDKSRWQQGNVFSCSVMHEALHNHYTQKSLSLSPGGGGGSGGGGSGGGGSGGGGSEVQLVESGGGLVQPGGSLRLSCAASGFTFTNYGLHWVRQAPGKGLEWVSSISPSGGVTYYRDSVKGRFTISRDNSKNTLYLQMNSLRAEDTAVYYCAKPFLGWGGANWIAHWGQGTLVTVSSGGGGSGGGGSGGGGSGGGGSDIQMTQSPSSLSASVGDRVTITCLASEDISNDLAWYQQKPGKAPKLLIYFVDRLLDGVPSRFSGSGSGTDFTLTISSLQPEDFATYYCQQSYKYPPTFGQGTKLEIK
light: B5 light
notes: Ly311 HC (IgG1 mutated Fc)-TM559 scFv VH-VL + Ly311 LC
On to B6, for which the binding result is “binds”.

B7: Ly411 (bispecific antibody, human IgG1, kappa)
heavy: EVQLVESGGGVVQPGRSLRLSCSASGFDFTTYWMSWVRQAPGKGLEWIGEIHPDSSTINYAPSLKDRFTISRDNAKNTLFLQMDSLRPEDTGVYFCASLYFGFPWFAYWGQGTPVTVSSASTKGPSVFPLAPSSKSTSGGTAALGCLVKDYFPEPVTVSWNSGALTSGVHTFPAVLQSSGLYSLSSVVTVPSSSLGTQTYICNVNHKPSNTKVDKKVEPKSCDKTHTCPPCPAPELLGPSVFLFPPKPKDTLMISRTPEVTCVVVDVSHEDPEVKFNWYVDGVEVHNAKTKPREEQYNSTYRVVSVLTVLHQDWLNGKEYKCKVSNKALPAPIEKTISKAKGQPREPQVYTLPPSREEMTKNQVSLTCLVKGFYPSDIAVEWESNGQPENNYKTTPPVLDSDGSFFLYSKLTVDKSRWQQGNVFSCSVMHEALHNHYTQKSLSLSPGK
light: DIQLTQSPSSLSASVGDRVTITCKASQDVGTSVAWYQQKPGKAPKLLIYWTSTRHTGVPSRFSGSGSGTDFTFTISSLQPEDIATYYCQQYSLYRSFGQGTKVEIKRTVAAPSVFIFPPSDEQLKSGTASVVCLLNNFYPREAKVQWKVDNALQSGNSQESVTEQDSKDSTYSLSSTLTLSKADYEKHKVYACEVTHQGLSSPVTKSFNRGECGGGGSGGGGSGGGGSGGGGSDIQMTQSPSSLSASVGDRVTITCLASEDISNDLAWYQQKPGKAPKLLIYFVDRLLDGVPSRFSGSGSGTDFTLTISSLQPEDFATYYCQQSYKYPPTFGQGTKLEIKGGGGSGGGGSGGGGSGGGGSEVQLVESGGGLVQPGGSLRLSCAASGFTFTNYGLHWVRQAPGKGLEWVSSISPSGGVTYYRDSVKGRFTISRDNSKNTLYLQMNSLRAEDTAVYYCAKPFLGWGGANWIAHWGQGTLVTVSS
notes: Ly311 HC (IgG1 mutated Fc) + Ly311 LC-TM559 scFv VL-VH
As for B7, the binding result was “binds”.

The values above are taken from patent US20220372155A1 (LYVGEN BIOPHARMA, published 2022).
